Assay results as given in article PMC9005348.

Biological target: rsGCaMP.LP294TR.ΔRSET (rsGCaMP1.1)
Assay: crystal structure; crystals with domain-swapped dimers; for rsGCaMP1.1 the C2 space group, two molecules in the asymmetric unit; Ca2+-bound protein

stoichiometry N: 2
Substance: rsGCaMP.LP294TR.ΔRSET (rsGCaMP1.1)
